Measurements published in publication PMC3466378 (Journal of immunology (Baltimore, Md. : 1950), 2012).
Ends that are not written are not given here.

Columns and labels:
HLA-DR1 = HLA-DR1 (Homo sapiens, UniProt P01903+P01911, A100R/D57E/F55L/F60I/F76Y/I96L/L162R/M171V/P40L/Q125E/R42F/V115G/Y59C); assay: biochemical; assay type: binding
[1] = target: Soluble recombinant HLA-DR1 (HLA DRB1*0101) (human); assay: ELISA
[2] = target: Soluble recombinant HLA-DR1 (HLA DRB1*0101) (human); assay: fluorescence polarisation

Row | Molecule | IC50 (HLA-DR1) [nM] | t1/2in [1] [h] | IC50 [2] [nM] | t1/2DM [1] [h]
1 | CC[C@H](C)[C@H](NC(=O)[C@H](CCCNC(=N)N)NC(=O)[C@H](CC(=O)O)NC(=O)[C@@H](NC(=O)[C@H](CCCCN)NC(=O)[C@@H](NC(=O)[C@H](CO)NC(=O)[C@H](CCC(=O)O)NC(=O)[C@@H](NC(=O)[C@H](Cc1ccc(O)cc1)NC(=O)[C@H](CCSC)NC(=O)[C@H](Cc1ccccc1)NC(=O)[C@H](CO)NC(=O)[C@H](Cc1ccccc1)NC(=O)[C@@H](N)CCCCN)[C@@H](C)CC)[C@@H](C)CC)C(C)C)C(=O)O [A20R (214–228)] | 192 | – | – | –
2 | CC[C@H](C)[C@H](NC(=O)[C@H](Cc1ccccc1)NC(=O)[C@H](CC(C)C)NC(=O)[C@H](CC(C)C)NC(=O)[C@H](CO)NC(=O)[C@@H](NC(=O)[C@H](C)N)C(C)C)C(=O)N[C@@H](CCC(N)=O)C(=O)NCC(=O)N[C@@H](Cc1ccc(O)cc1)C(=O)N[C@@H](CO)C(=O)N[C@H](C(=O)N[C@@H](Cc1ccc(O)cc1)C(=O)N[C@@H](CCC(=O)O)C(=O)N[C@@H](CC(N)=O)C(=O)O)[C@@H](C)CC [A28Ls (15–29)] | 212 | – | – | –
3 | CC[C@H](C)[C@H](NC(=O)CNC(=O)[C@H](CO)NC(=O)[C@H](CCC(N)=O)NC(=O)[C@H](CC(N)=O)NC(=O)[C@@H](NC(=O)[C@H](Cc1ccccc1)NC(=O)[C@@H]1CCCN1C(=O)[C@@H](N)CCC(=O)O)C(C)C)C(=O)N[C@@H](CCC(=O)O)C(=O)N[C@H](C(=O)N[C@@H](CC(C)C)C(=O)N[C@@H](CC(C)C)C(=O)O)[C@@H](C)CC [D11L (386–398)] | 106 | – | – | –
4 | CC[C@H](C)[C@H](NC(=O)[C@H](CO)NC(=O)[C@H](CC(N)=O)NC(=O)[C@H](Cc1ccccc1)NC(=O)[C@@H](NC(=O)[C@@H](N)CC(C)C)C(C)C)C(=O)N[C@@H](CO)C(=O)N[C@@H](C)C(=O)N[C@@H](CCCNC(=N)N)C(=O)N[C@@H](C)C(=O)N[C@@H](CC(C)C)C(=O)N[C@@H](CCCCN)C(=O)N[C@@H](C)C(=O)N[C@@H](Cc1ccc(O)cc1)C(=O)N[C@@H](Cc1ccccc1)C(=O)O [I1L (8–22)] | 15 | – | – | –
5 | CC[C@H](C)[C@H](NC(=O)[C@H](C)NC(=O)[C@H](CC(C)C)NC(=O)[C@H](CO)NC(=O)[C@H](CC(N)=O)NC(=O)[C@H](CC(C)C)NC(=O)[C@H](Cc1ccccc1)NC(=O)[C@H](CCCNC(=N)N)NC(=O)[C@H](CCSC)NC(=O)[C@H](CC(=O)O)NC(=O)[C@@H](N)Cc1ccccc1)C(=O)N[C@@H](Cc1c[nH]cn1)C(=O)N[C@@H](CCC(=O)O)C(=O)O [I7L (193–205)] | 150 | – | – | –
6 | CC[C@H](C)[C@H](NC(=O)[C@@H]1CCCN1C(=O)[C@H](CO)NC(=O)CNC(=O)[C@H](CC(=O)O)NC(=O)[C@H](CC(C)C)NC(=O)[C@@H](NC(=O)[C@H](CCCCN)NC(=O)[C@H](Cc1ccccc1)NC(=O)CNC(=O)[C@H](CC(C)C)NC(=O)[C@@H](N)CO)C(C)C)C(=O)N[C@@H](CO)C(=O)N[C@@H](CC(C)C)C(=O)N[C@@H](CCCNC(=N)N)C(=O)O [I8R (243–257)] | 17 | – | – | –
7 | A28Ls (15–29) (peptide) | – | 213 | 212 | –
8 | A48Rs (41–55) (peptide) | – | 136 | 44 | 115
9 | D5R (315–329) (peptide) | – | 276 | – | –
10 | D6R (156–170) (peptide) | – | 997 | 4 | 219
11 | F1L(202–214) (peptide) | – | 413 | – | 117
12 | GRYLVLKAVKVSD [F17R(19–31)] | 37 | – | – | –
13 | HPDYAILAARIAVSN [I4L (71–85)] | 62 | – | – | –
14 | I1L (8–22) (peptide) | – | 155 | 15 | –
15 | I4L (71–85) (peptide) | – | 278 | – | –
16 | L1R (191–205) (peptide) | – | – | 7360 | –
17 | TTQSMNIMESIPANT [A48Rs (41–55)] | 44 | – | – | –
